Source: paper doi:10.1101/2023.11.28.569006

Assays:
[1] = molecular target: hetero-oligomers with three or more ADGroEL_SacSm in their composition; assay: pull-down
[2] = molecular target: artificial chaperone ADGroEL_SacSm (complete heptameric ring) (not stated | Sulfolobus acidocaldarius); assay: pull-down

B1: denatured alpha-Lactalbumin (αLA) (natural protein)
chain: EQLTKCEVFRELKDLKGYGGVSLPEWVCTTFHTSGYDTQAIVQNNDSTEYGLFQINNKIWCKDDQNPHSSNICNISCDKFLDDDLTDDIMCVKKILDKVGINYWLAHKALCSEKLDQWLCEKL
Question: What does the source list for B1?
Answer: stoichiometry N (αLA per ADGroEL) [1]: 0.5; stoichiometry N (αLA molecules per complete ring) [2]: 4
